dF/F0 of the 1130 nm SWCNT emission peak after 90 min, 10 mg/L data for one substance are collected here from article PMC10493163.

The assay addresses angiotensin-converting enzyme 2 (ACE2), noncovalently adsorbed on (GT)6-SWCNTs (human) (UniProt Q9BYF1). The assay can be described thus: other fluorescence titration.
Chain of UniProt Q9BYF1 (Q9BYF1 18-805): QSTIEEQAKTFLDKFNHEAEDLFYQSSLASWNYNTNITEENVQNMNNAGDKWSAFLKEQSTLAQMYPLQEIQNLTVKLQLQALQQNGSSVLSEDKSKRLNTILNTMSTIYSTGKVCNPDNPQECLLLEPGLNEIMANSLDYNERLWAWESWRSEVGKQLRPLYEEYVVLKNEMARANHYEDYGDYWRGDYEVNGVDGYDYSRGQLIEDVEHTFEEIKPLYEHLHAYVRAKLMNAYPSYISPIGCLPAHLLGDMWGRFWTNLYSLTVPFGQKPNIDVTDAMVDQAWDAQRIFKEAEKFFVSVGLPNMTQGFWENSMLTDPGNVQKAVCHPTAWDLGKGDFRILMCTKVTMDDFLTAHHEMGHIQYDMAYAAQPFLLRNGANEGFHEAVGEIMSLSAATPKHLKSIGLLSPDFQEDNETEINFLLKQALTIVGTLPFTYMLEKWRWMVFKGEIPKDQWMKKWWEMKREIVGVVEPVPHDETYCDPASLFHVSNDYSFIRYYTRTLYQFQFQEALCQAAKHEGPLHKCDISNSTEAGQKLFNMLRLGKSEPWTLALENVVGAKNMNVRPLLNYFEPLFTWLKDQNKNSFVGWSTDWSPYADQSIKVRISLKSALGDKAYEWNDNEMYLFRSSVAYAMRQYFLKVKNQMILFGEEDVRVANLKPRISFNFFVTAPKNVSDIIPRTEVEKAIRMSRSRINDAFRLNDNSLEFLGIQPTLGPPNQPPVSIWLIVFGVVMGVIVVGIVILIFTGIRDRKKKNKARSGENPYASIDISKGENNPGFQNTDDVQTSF

“SARS-CoV-1 spike protein receptor-binding domain (domain or fragment)” had a dF/F0 of the 1130 nm SWCNT emission peak after 90 min, 10 mg/L of 88.4%.
